Measured values reported in patent US20110223176A1 (AbbVie / Abbott, published 2011).

Legend:
[1] = molecular target: T1, human BSG2 (basigin isoform 2) on the cell surface (human, UniProt P35613 140-385); assay: receptor binding assay, Eu-labeled antibody on cells expressing human BSG2
T1 construct: Presented on stably transfected BAF3 cells or endogenously on human tumor cell lines (HepG2, MiaPaCa-2, DoHH-2); also called hBSG2; CD147
T1 sequence: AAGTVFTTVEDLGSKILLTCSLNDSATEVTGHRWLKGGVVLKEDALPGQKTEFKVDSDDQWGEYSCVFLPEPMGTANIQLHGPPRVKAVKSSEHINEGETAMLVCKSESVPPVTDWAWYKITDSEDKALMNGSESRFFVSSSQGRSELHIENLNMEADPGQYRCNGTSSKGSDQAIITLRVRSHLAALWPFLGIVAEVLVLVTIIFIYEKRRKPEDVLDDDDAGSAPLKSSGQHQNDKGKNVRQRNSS
Description: Cell lines expressing BSG2 were harvested and washed once in assay buffer (PBS, 0.1% BSA, 0.02% Na Azide, 10 mM EDTA) and resuspended to 5×10⁶ cells per mL. Serial 1:2 dilutions of ⁺³Eu-labeled anti-BSG2 antibody stock in assay buffer were made for final concentrations ranging from 1.6×10⁻⁸-7.7×10⁻¹² M, and a 4 mg/mL solution of unlabeled anti-BSG2 antibody was also prepared. To 96 well round bottom plates, 25 μl of ⁺³Eu-labeled antibody dilutions were added to 25 μl buffer (total counts), or 25 μl of unlabeled antibody were added to 25 μl buffer (background counts). 50 μl of cells at 2.5×10⁵ cells per well were then added to all samples, mixed gently, and incubated on ice for 1 hour. Cell bound antibody was then separated from unbound antibody by transferring 20 μL of the reaction mixture to Acrowell 96 well filter plates (Pall PN 5020), centrifuged for 5 min (2200 rpm), washed 3× with 150 μL cold assay buffer, and centrifuged for 5 min. Signal was determined by incubating samples with 150 μL/well of enhancement buffer and read using Envision. The specific counts were determined by subtracting the background counts (cells+labeled antibody+excess cold antibody) from the corresponding total counts (cells+labeled antibody) for each antibody concentration. The labeled antibody concentration versus total counts was analyzed using Graphpad Prism 4 to calculate Kd and Bmax values.
(§1) BSG2 antibody binding activities against whole cells expressing human or cynomolgus monkey BSG2 were assessed by ECL using MSD technology (described in Example 1.3) and the receptor binding assay (described in Example 1.4) and are shown in Table 11.

[2] = molecular target: T2, cynomolgus monkey BSG2 on the cell surface (cynomolgus monkey); assay: cell-based ECL (MSD) binding on whole cells expressing cynomolgus BSG2
T2 construct: whole, on cells; also called BAF3-cyno BSG2; Cyno BSG2
Description: Cells were plated at 25,000 cells/well in 25 μl PBS using 96 well MSD high binding plates (MSD, catalogue no. L11XB-3), and incubated at 37° C. for 1 hour. 25 μl/well of blocking solution (30% serum in PBS) was added to the plates for 30 minutes at room temperature with mild agitation. Plates were then incubated with 25 μl/well of BSG2 antibodies (10 μg/ml) diluted in assay buffer (10% serum in PBS) for 1 hour at room temperature with mild agitation, and then washed 3× with PBS. Goat anti-mouse or anti-human IgG sulfotag was added at 1 μg/ml for 1 hour with mild agitation, and plates were washed 3× with PBS. After the final wash, plates were incubated with 2×MSD surfactant-free read buffer (catalogue no. R92TD-2) and the signal was detected on a MSD SECTOR Imager 6000. Data were analyzed using Graphpad Prism software and EC₅₀ values were reported.
as §1

[3] = molecular target: T1, human BSG2 (basigin isoform 2) on the …; assay: flow cytometry (FACS) on HepG2 hepatocellular carcinoma cells (cell-surface BSG2)
Description: (§2) Stable cell lines overexpressing cell-surface BSG2 or human tumor cell lines were harvested from tissue culture flasks, washed three times and resuspended in phosphate buffered saline (PBS) containing 1% bovine serum albumin and 1 mM CaCl₂ (FACS buffer). 5×10⁵ cells were incubated with antibodies at various concentrations in FACS buffer for 60 minutes on ice. Cells were washed twice and the bound murine monoclonal antibody was detected with a goat Fab′2 anti-mouse IgM+IgG+IgA (H+L) R-phycoerythrin-conjugated antibody (Southern Biotechnology Associates, Inc., Birmingham, Ala., Catalog No. 1012-08) diluted 1:500. Following incubation on ice (4° C., 60 minutes), cells were washed three times and resuspended in FACS buffer. Fluorescence was measured using a Becton Dickinson FACSCalibur-HTS (Becton Dickinson, San Jose, Calif., US). Data were analyzed using Graphpad Prism software and EC₅₀ values were reported as the concentration of antibody to achieve 50% of maximal BSG2 antibodies binding to BSG2 expressing cells.

[4] = molecular target: T3, purified recombinant human BSG2 extracellular domain (human, UniProt P35613 22-325); assay: SPR (Biacore), mAb captured by anti-mouse Fc, BSG2 ECD injected, 25 C
T3 construct: also called Human BSG2 ECD
T3 sequence: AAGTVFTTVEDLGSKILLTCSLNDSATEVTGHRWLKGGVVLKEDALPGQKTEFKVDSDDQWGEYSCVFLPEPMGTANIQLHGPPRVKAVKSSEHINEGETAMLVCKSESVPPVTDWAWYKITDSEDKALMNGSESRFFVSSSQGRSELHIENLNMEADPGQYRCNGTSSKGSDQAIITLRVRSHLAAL
Description: (§3) Binding of BSG2 antibodies to a purified recombinant BSG2 extracellular domain (ECD) was determined by surface plasmon resonance-based measurements with a Biacore® instrument (either a Biacore 2000, Biacore 3000, or Biacore T100; GE Healthcare, Piscataway, N.J., US). The assay format for mAb affinity analysis was Fc-based capture via immobilized anti-Fc IgG. A standard amine coupling protocol was employed to immobilize Fc-specific IgG via primary amines to the carboxy-methyl (CM) dextran surface of CMS sensorchips. For the study of mouse anti-human BSG2 mAbs, anti-mouse Fc was used as the immobilized capture reagent. An automated protocol, available on the Biacore 2000, was used to immobilize 8000-10000RU of capture reagent in all 4 flowcells of the sensorchip. Binding was recorded as a function of time and kinetic rate constants were calculated. In this assay, on-rates as fast as 10⁷M⁻¹ s⁻¹ and off-rates as slow as 10⁻⁵ s⁻¹ can be measured.
(§4) Briefly, the CM-dextran surfaces were activated by freshly prepared 1:1 […] 3-(N,N-dimethylamino)propyl-N-ethylcarbodiimide (EDC). Then the anti-Fc IgG capture reagent (20 μg/ml in 10 mM sodium acetate, pH 4.5) was applied to the surface followed by deactivation of the surface and blocking of the residual reactive sites with 1M ethanolamine (pH 8.5). The running buffer employed was PBS-PB [1×PBS (Sigma P3813), pH 7.4, 0.005% P20 surfactant, 0.1 mg/ml BSA (Sigma-A7906)] and the assay temperature was 25° C. All reagents were diluted into running buffer to the specified concentrations. Each experimental cycle consisted of the following steps: (1) anti-BSG2 mAbs at 0.5 to 1 μg/ml were captured in flowcells 2, 3 or 4 to a level of 100-120RU. All measurements were referenced against flowcell 1 which had no captured anti-BSG2 mAb; (2) human BSG2 ECD was injected through all 4 flowcells, 240 μl at 80 μl/min. After the antigen injection, dissociation was monitored for 600 seconds at 80 μl/min; and (3) the anti-Fc capture surface was regenerated with 10 mM glycine, pH 1.5.
(§5) The BSG2 antibody binding affinities were determined by the BIACORE technology as described in Example 1.2. Table 10 represents the antibody binding kinetics against human and cynomolgus monkey BSG2 extracellular domain (ECD).

[5] = molecular target: T4, cynomolgus monkey BSG2 extracellular domain (cynomolgus monkey); assay: as above
T4 construct: extracellular domain; also called Cynomolgus BSG2 ECD
Description: as §3, §4, §5

[6] = molecular target: T1, human BSG2 (basigin isoform 2) on the …; assay: flow cytometry (FACS) on BAF3 cells expressing human BSG2
Description: as §2

[7] = molecular target: T1, human BSG2 (basigin isoform 2) on the …; assay: cell-based ECL (MSD) binding on whole cells expressing human BSG2
[8] = molecular target: T2, cynomolgus monkey BSG2 on the cell …; assay: flow cytometry (FACS) on BAF3 cells expressing cynomolgus BSG2
Description: as §2

B1: mouse anti-human BSG2 monoclonal antibody EB41-1F4-2C1 (antibody, mouse IgG1, V domains shown)
VH: EVKLEESGGGLVQPGGSMKLSCVASGFTFSNFWMDWVRQSPEKGLEWVAEIRLKSTNYATHYAESVKGRFTISRDDSKSSVYLQMNNLRAEDTGIYYCTATSTGYWGQGTTLTVSS
VL: SIVMTQSPKILLVSAGDRVTITCKASQSVSNDVAWYQQKPGQSPKLLIYYASNRYTGVPDRFTGSGYGTDFTFTISTVQAEDLAVYFCQQDYSSPYTFGGGTKLEIK
notes: Hybridoma antibody, mouse IgG1/kappa
Kd [1]: 0.4 nM
EC50 [2]: 16 nM
EC50 [3]: 0.17 nM
Kd [4]: 2.5 nM
koff [4]: 0.001 s⁻¹
kon [4]: 400000 M⁻¹ s⁻¹
Kd [5]: 1600 nM
koff [5]: 0.6 s⁻¹
kon [5]: 377000 M⁻¹ s⁻¹
EC50 [6]: 0.2 nM
EC50 [7]: 0.4 nM
EC50 [8]: 0.71 nM
